Patent publication US8841274B2, “Protein arginine N-methyltransferase-5 method of cancer treatment” (priority 2009, dated 2014)

How the values were obtained:
PRMT5 [1] = target: T1, PRMT5 (Homo sapiens, UniProt O14744); experiment: GST binding assay with U2OS cell lysate, PRMT5 immunoblot; design: The indicated GST proteins were incubated with U2OS cell lysate; endogenous in cells; host or cells: U2OS; settings: GST-E2F-1 proteins incubated with U2OS cell lysate
Protocol: It was then assessed whether E2F-1 could interact with PRMT5 and thereafter the role of each R residue in mediating the interaction. […] The indicated GST proteins were incubated with U2OS cell lysate, and bound proteins immunoblotted using anti-GST (for input GST), DP-1 or PRMT5 antibodies. Binding to DP-1, the major heterodimeric partner for E2F-1 (Stevens and La Thangue 2003), served as a control since it bound equally to each of the E2F-1 proteins.
GST or GST tagged proteins (10 μg each) were incubated with agarose beads and damaged or undamaged U2OS cell lysates for 3 h. Beads were then washed with TNN buffer 3 times. SDS sample buffer was added to beads and samples were analysed by immunoblotting.
Target sequence in this assay (O14744 whole entry): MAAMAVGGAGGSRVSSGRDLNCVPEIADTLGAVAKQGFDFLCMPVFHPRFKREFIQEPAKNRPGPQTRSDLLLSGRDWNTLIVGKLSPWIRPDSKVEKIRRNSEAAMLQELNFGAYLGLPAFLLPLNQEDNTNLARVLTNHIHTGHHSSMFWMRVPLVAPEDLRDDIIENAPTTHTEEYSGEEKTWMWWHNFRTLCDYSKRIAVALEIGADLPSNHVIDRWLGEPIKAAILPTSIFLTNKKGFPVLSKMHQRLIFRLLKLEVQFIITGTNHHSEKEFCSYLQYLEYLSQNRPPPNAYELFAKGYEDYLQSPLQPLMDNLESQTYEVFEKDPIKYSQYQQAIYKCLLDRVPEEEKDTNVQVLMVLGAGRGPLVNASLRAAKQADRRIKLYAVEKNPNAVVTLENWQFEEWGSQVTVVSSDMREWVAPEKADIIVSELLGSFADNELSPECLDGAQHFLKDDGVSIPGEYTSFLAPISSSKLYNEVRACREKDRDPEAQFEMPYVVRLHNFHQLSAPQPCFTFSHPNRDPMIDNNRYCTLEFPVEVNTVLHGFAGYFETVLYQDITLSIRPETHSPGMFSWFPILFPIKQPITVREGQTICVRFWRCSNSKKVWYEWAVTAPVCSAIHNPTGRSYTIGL

U2OS cells = experiment: Apoptosis (sub-G1) by FACS in U2OS cells; format: cell-based; settings: U2OS cells, expression vectors 48 h; relative to wild-type E2F-1; n=2
Protocol: Whether arginine methylation influences E2F-1-dependent apoptosis was investigated by comparing the ability of wild-type E2F-1 to the KK and KKK mutants to induce cells with a sub-G1 DNA content (Stevens et al 2003). […] U2OS cells were transfected with expression vectors encoding wild-type E2F-1, KK and KKK as indicated for 48 h and analysed by FACS as described. The graph represents the relative change in sub-G1 populations compared to the empty vector control treatment; n=2.
The graph (i) represents the relative number of sub-G I cells (compared to the control treatment) in the indicated conditions; and (ii) the level of PRMT5 and E2F-1; n=3.
PRMT5 (P) or control (C) non-targeting siRNA (25 nM) was transfected into HCT116 p53+/+ (i), HCT116 p53−/− (ii) or U2OS (iii) cells and the cells were harvested 72 h post-transfection and analysed by FACS. The graph represents the actual number of sub-G1 cells in the indicated conditions, and the immunoblot the level of PRMT5 and actin control; n=3.
PRMT5 (P), E2F-1 (E) or control (C) non-targeting siRNA was transfected into U2OS cells and harvested 72 h post-transfection and analysed by FACS as described.
Cells were transfected with the indicated expression vectors together with pBB14-GFP (for 48 h) to monitor transfection efficiency or siRNA (for 48 h or 72 h) with or without treatment of the DNA damage agent for the last 16 h. Then, cells were fixed and stained with propidium iodide and analyzed by Flow Cytometry.

PRMT5 [2] = target: T1, PRMT5; experiment: In vitro methyltransferase assay of E2F-1 proteins; format: biochemical; design: made in house; host or cells: U2OS cells (transient transfection, anti-Flag immunoprecipitation, elution); settings: about 1 μg protein, 3H labeled SAM; mutants compared with wild-type E2F-1
Protocol: To assess whether the RGRGR motif was a direct target for PRMT5 methylation, a series of mutant derivatives of E2F-1 were made in which each arginine (R) residue was substituted with a lysine residue (K; FIG. 1a), and the ability of the mutant derivative to be methylated in vitro then assessed. […] In FIG. 1b(i) each of the indicated proteins (about 1 μg) was used in the methylation reaction. In vitro methylated samples were analysed by SDS-PAGE as described below. E2F-1 is indicated. In FIG. 1b(ii) samples in FIG. 1b(i) were counted (3H cpm as indicated). Histones treated with PRMT5 served as the positive control. The data shown provide one example taken from two different experiments.
Flag-PRMT5 plasmid was transfected into U2OS cells for 48 h. Cells were lysed and Flag-PRMT5 was immunoprecipitated with agarose beads and then eluted. The elute was mixed with recombinant substrates (GST fusion proteins or histones) in methylation reaction buffer (50 mM Tris, 0.1 mM EDTA, 50 mM NaCl) with ^3H labeled SAM (as —CH3 group donor) to a volume of 40 μl and incubated at 30° C. for 90 min. Half of the reactions were then spotted onto p81 membrane circles (Whatman) and air dried. The membranes were then washed three times, 5 min each in 50 ml of wash buffer (46 mM NaHCO3, 4 mM Na2CO3, pH 9.2). After washing briefly with acetone, membranes were air dried, placed in scintillation vials, immersed in scintillation fluid (Beckman Coulter) and disintegrations per minute (DPM) measured in a scintillation counter. The other half of the reactions were run on SDS-PAGE gel and used to detect ^3H auto-radioisotope/methylation signal.
Target sequence in this assay (O14744 whole entry): as above
Target sequence in this assay (Q9BQA1 whole entry partner): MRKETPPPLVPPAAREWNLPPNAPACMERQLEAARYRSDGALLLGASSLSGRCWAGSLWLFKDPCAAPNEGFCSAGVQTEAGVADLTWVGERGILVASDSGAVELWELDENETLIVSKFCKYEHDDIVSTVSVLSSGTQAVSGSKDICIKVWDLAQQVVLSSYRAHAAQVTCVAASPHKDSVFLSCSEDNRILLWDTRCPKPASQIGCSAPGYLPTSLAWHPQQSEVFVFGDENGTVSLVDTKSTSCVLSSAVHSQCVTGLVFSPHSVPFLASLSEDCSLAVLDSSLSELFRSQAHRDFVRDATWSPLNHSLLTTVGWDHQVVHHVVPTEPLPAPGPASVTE

[3] = test system: p73-luciferase or cyclinE-luciferase; experiment: Reporter assay with E2F-responsive promoters; format: cell-based; settings: U2OS cells, 48 h, equivalent protein level; compared to wild-type E2F-1; n=3
Protocol: To further explore the role of arginine methylation in the transcription properties of E2F-1, wild-type E2F-1 was compared with the KK and KKK mutants in a reporter-based transfection assay, using E2F-responsive promoters derived from E2F target genes. The assay was performed under conditions in which each mutant protein was expressed at an equivalent level to wild-type E2F-1 (FIG. 4aii and bii), thus ruling out any difference in activity that could be attributed to protein levels. […] FIGS. 4a and b show the transcription properties of wild-type E2F-1, KK and KKK mutants. U2OS cells were transfected with expression vectors encoding WT or mutant E2F-1 protein, together with p73-luciferase (A) or cyclinE-luciferase (B) for 48 h as indicated, and pCMV-βgal to monitor transfection efficiency. Relative luciferase activity (luciferase/βgal) is shown together with expression level of ectopic proteins; n=3. […] PRMT5 (P) or control (C) non-targeting siRNA was transfected into U2OS cells together with p73-luciferase (i) or cyclinE-luciferase (ii) for 48 h, together with pCMV-βgal to monitor transfection efficiency. Relative luciferase activity is shown together with expression level of the ectopic proteins.
Cells were transfected with expression vectors (1 μg) encoding WT or the mutant E2F-1 proteins as indicated with E2F responsive luciferase reporters, namely p73-luciferase or cyclinE-luciferase, together with pCMV-βgal to monitor transfection efficiency. Cells were harvested, lysed 48 h post-transfection and luciferase activity measured as previously described (Janson et al 2008).

DP-1 = target: T2, DP-1 (Homo sapiens, UniProt Q14186); experiment: Co-immunoprecipitation of ectopic E2F-1 with DP-1 in U2OS cells; format: cell-based; settings: expression vector transfected into U2OS cells, HA11 IP
T2 construct: endogenous in cells; host or cells: U2OS
T2 sequence (Q14186 1-410): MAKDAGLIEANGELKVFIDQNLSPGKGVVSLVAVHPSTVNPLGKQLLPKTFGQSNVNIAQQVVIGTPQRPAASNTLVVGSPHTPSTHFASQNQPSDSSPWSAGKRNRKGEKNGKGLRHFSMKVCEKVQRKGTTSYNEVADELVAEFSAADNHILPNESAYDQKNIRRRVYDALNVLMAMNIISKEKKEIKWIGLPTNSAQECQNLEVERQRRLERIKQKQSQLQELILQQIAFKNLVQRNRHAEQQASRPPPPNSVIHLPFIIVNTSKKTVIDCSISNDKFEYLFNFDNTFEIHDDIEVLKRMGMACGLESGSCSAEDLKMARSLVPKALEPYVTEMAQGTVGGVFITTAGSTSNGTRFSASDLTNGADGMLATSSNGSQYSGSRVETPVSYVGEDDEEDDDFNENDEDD
Text: (§1) To establish whether E2F-1 was able to bind to PRMT5 in cells, the interaction between ectopic wild-type E2F-1 or KKK with PRMT5 was studied. […] Either a wild-type E2F-1 expression vector or a KKK expression vector was transfected into U2OS cells, and HA11 antibody was used for immunoprecipitation (IP) followed by immunoblotting with HA11 (E2F-1), PRMT5 or DP-1 as indicated. The level of input (In) protein is indicated. […] In contrast, binding to DP-1 was equivalent for both wild-type E2F-1 and KKK. […] Further, the RGRGR motif is necessary for the interaction, which also encompasses the site of PRMT5 methylation.
(§2) Cells were either left untransfected or transfected with expression vectors as indicated. At 48 h post transfection, cells were harvested in TNN buffer (50 mM Tris-HC1 [pH 7.4], 150 mM NaCl, 5 mM EDTA, 0.5% Ipegal, 50 mM NaF, 0.2 mM sodium orthovanadate and protease inhibitor cocktail (1 mM PMSF, leupeptin [1 μg/ml], aprotinin [1 μg/m1], and pepstatin A [1 μg/ml])) and rotated at 4° C. for 30 min to 1 h. The cell lysate was then homogenised, centrifuged at 11000 rpm for 10 min to remove cell debris and the supernatant collected. All lysates were normalized for protein concentration and, where appropriate, for transfection by β-galactosidase activity. […] Enhanced chemi-luminescence (Pierce Biotechnology, Rockford, Ill.) was used to visualize antibody binding.

PRMT5 [4] = target: T1, PRMT5; experiment: Co-immunoprecipitation of ectopic E2F-1 with PRMT5 in U2OS cells; format: cell-based; design: The indicated GST proteins were incubated with U2OS cell lysate; endogenous in cells; host or cells: U2OS; settings: expression vector transfected into U2OS cells, HA11 IP
Text: as §1, §2
Target sequence in this assay (O14744 whole entry): as the sequence (O14744 whole entry) above

Substance | binding to PRMT5 (PRMT5 [1]) | in vitro methylation by PRMT5 (PRMT5 [2]) | transcriptional activity (relative luciferase activity) [3] | binding to DP-1 in cells (DP-1) | co-immunoprecipitation with PRMT5 (PRMT5 [4]) | apoptosis (sub-G1 population) (U2OS cells)
R109K: mutant E2F-1 with arginine 109 substituted with lysine | significant PRMT5 binding activity | reduced methylation |  |  |  | 
R111K: mutant E2F-1 with arginine 111 substituted with lysine | compromised PRMT5 binding | greater level of reduction |  |  |  | 
R113K: mutant E2F-1 with arginine 113 substituted with lysine | compromised PRMT5 binding | greater level of reduction |  |  |  | 

Second part, led by results:

binding to PRMT5 (PRMT5 [1]) | in vitro methylation by PRMT5 (PRMT5 [2]) | transcriptional activity (relative luciferase activity) [3] | binding to DP-1 in cells (DP-1) | co-immunoprecipitation with PRMT5 (PRMT5 [4]) | Substance | apoptosis (sub-G1 population) (U2OS cells)
completely devoid of PRMT5 binding | could not be methylated by PRMT5 | increased transcriptional activity |  |  | KK: methylation-defective E2F-1 protein containing the mutations R111K and R113K | increased levels of apoptosis
bound to PRMT5 | could be methylated in vitro |  | equivalent | co-immunoprecipitated with PRMT5 | wild-type E2F-1: E2F-1 protein, SEQ ID NO:3, used as GST fusion or HA-tagged expression vector | 
